Experimental data published in US20110020353A1 (published 2011).

Biological target: T1, 161P2F10B variant 1 (human), on the cell surface (human, UniProt O14638 1-875)
T1 construct: Reported to be dimeric on the cell surface; also called 161P2F10B v.1; CD203c
Test: FACS on KU-812 cells, serial dilutions, one site binding fit

Kd: 20 pM
B1: Ha16-1.42 (antibody, V domains shown)
VH: EVQLVQSGAEVKKPGESLKISCKGSGYRFTSYWIGWVRQMPGKGLEWMGIIYPGDSDTRYSPSFQGQVTISADKSISTAYLQWSSLKASDTAMYYCARKDYYYYSMDVWGQGTTVTVSS
VL: QSALTQPASVSGSPGQSITISCTGTSSDVGRFNYVSWYQQRPGKAPKLMIYAVNIRPSGVSNRFSGSKSGNTASLTISGLQAEDEAGYYCSSYTSSSTLLVFGGGTKLTVLG
